The values that follow are results of earlier work, collected in PMC5700508.

The target in the data set is transferrin receptor (Homo sapiens) (UniProt P02786).
Chain of transferrin receptor (Homo sapiens) (P02786 101-760): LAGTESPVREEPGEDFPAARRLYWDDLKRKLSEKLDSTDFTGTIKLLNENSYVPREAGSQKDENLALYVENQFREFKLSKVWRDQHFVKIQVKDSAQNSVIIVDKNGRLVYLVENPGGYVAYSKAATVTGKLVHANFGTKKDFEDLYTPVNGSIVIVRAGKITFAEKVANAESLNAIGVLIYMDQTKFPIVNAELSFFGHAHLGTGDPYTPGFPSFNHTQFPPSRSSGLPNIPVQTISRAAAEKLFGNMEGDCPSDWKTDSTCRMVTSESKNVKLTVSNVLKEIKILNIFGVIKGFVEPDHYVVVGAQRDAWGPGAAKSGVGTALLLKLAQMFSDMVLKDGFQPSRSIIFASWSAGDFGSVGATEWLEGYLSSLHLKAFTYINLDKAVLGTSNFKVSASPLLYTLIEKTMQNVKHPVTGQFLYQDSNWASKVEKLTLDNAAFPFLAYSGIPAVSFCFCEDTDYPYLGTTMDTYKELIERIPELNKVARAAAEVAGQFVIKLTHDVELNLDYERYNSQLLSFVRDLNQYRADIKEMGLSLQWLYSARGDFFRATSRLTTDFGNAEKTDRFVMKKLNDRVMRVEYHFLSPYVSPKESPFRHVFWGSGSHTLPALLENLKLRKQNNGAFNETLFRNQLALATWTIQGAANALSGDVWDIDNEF

Consider T7 peptide, for which the Kd is 10 nM.
